Broadly, the Kd is the equilibrium constant for the complex coming apart. A higher Kd goes with weaker binding.

This data set deals with bFGF (basic fibroblast growth factor) (UniProt P09038).

Read-outs that look alike come from different tables or passages of the source.

bFGF (basic fibroblast growth factor), sequence (P09038 143-288): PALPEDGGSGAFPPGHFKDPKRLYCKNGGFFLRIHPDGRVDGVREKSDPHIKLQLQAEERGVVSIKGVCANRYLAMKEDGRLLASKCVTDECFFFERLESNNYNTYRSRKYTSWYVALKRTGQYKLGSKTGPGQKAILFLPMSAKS

For GGGCTTTGTAAAACCCCGC [225T3], the Kd (reference ligand, same affinity as PEG and cholesterol conjugates, binding assay type not stated) is 1 nM.

Consider GGGCTTTGTAAAACCCCGC [225T3N-PEG-3400], for which the Kd (3'-amino-modifier C7 conjugated to PEG 3400 [3' end after position 19: NN = non-nucleotide 3'-amino-modifier C7 and PEG 3400, left out], binding assay with 5'-32P-labeled conjugate, assay type not stated) was 1 nM.

GGGCTTTGTAAAACCCCGC [225t3-Chol]: the Kd (3'-tetraethyleneglycol cholesterol, binding assay with 5'-32P-labeled conjugate, assay type not stated) was determined as 1 nM.

(Values after patent US6011020.)
